Test results as given in US20230192817A1 (ZHUHAI TRINOMAB PHARMACEUTICAL, published 2023).

Assays:
[1] = target: T1, VZV gH/gL protein complex (CAMBRIDGEBIO, Cat No: 01-11-0045) (Varicella-Zoster Virus, UniProt P09260 18-802; P09308 22-159); assay: SPR (Biacore), antibody captured on anti-human IgG (Fc) CM5 chip, gH/gL complex as analyte
T1 construct: also called gHgL-Cambridge
T1 sequence 1: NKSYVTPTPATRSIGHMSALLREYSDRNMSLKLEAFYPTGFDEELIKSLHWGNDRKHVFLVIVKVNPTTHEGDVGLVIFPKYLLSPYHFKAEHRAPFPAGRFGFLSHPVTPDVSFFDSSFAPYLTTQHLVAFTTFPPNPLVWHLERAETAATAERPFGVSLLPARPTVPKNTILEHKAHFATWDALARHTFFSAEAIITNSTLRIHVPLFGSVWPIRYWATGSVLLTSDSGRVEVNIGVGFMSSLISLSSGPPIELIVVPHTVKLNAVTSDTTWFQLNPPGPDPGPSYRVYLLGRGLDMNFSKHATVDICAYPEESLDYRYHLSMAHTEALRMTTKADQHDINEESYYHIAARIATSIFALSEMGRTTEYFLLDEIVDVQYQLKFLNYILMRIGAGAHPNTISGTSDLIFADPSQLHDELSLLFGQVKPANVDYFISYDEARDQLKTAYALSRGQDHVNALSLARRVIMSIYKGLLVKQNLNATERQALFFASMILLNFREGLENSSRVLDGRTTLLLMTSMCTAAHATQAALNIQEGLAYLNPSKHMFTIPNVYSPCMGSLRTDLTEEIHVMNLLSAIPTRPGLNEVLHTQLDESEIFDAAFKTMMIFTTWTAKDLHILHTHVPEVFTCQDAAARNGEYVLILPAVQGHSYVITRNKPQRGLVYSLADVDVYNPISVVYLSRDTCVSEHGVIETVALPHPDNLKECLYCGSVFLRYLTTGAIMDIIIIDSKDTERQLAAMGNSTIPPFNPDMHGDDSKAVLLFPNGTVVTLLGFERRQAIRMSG
T1 sequence 2: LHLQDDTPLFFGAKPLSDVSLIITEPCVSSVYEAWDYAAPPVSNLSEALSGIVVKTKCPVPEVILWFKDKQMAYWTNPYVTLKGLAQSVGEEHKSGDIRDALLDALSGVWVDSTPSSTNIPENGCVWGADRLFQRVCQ

[2] = target: T1, VZV gH/gL protein complex …; assay: ELISA, plate coated with 100 ng/well VZV gH/gL complex, detection Goat-Anti-IgG-Fab-HRP
[3] = target: T1, VZV gH/gL protein complex …; assay: ELISA, culture supernatant

B1: fully human VZV monoclonal antibody TRN1025 (antibody, V domains shown)
VH: QVQLVQSGGGLVQPGGSLRLSCVASGFTFSSYAMTWVRQAPGKGLEWVSTISGSGGSTFYADSVRGRFTISRDNSKNALYLQMNSLRAEDTAVYYCAKDRSYGGNQPFDYWGQGTLVTVSS
VL: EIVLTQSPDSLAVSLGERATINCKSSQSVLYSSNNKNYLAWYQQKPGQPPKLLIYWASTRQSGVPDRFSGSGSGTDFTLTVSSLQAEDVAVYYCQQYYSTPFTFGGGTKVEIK
Kd [1]: 13.4 nM | koff [1]: 0.000416 s⁻¹ | kon [1]: 31100 M⁻¹ s⁻¹ | EC50 (read off the curve) [2]: ~0.5 µg/mL

B2: fully human VZV monoclonal antibody TRN1024 (antibody, V domains shown)
VH: QVQLVQSGGGLVQPGGSLRLSCEASGFTFSSYWMSWVRQAPGKGLEWVANIKQDGSEKYYVDSVKGRFSISRDNAKNSLYLQMNSLRVEDTAVYYCAREGGGQGKWRLEYGMDVWGQGTTVIVSS
VL: not shown
Kd [1]: 36.7 nM | koff [1]: 0.000621 s⁻¹ | kon [1]: 16900 M⁻¹ s⁻¹ | EC50 (read off the curve) [2]: ~0.6 µg/mL

B3: fully human VZV monoclonal antibody TRN1026 (antibody, V domains shown)
VH: QVQLVQSGAEVKKPGSSVKVSCKASGRTFSSYAYSWVRQAPGQGLEWMGRVIPVLGITNYAPKFQGKVTITVDKVTSTAFLELTGLKSDDTAVYYCARVSDDVLTGALDYWGQGTLVTVSS
VL: QSVLTQPPSVSGSPGQSVTISCTGTRSDVGSHNRVAWFQQSPGTAPKLMIYEVTNRPSGVPDRFSGSKSGNTASLTISGLQAEDEADYYCSSYTSTSTWVFGGGTKLTVL
Kd [1]: 2.66 nM | koff [1]: 0.000274 s⁻¹ | kon [1]: 103000 M⁻¹ s⁻¹

B4: antibody variant derived from antibody TRN1026 (antibody, V domains shown)
VH: QVQLVQSGAEVKKPGSSVKVSCKASGRTFSSYAYSWVRQAPGQGLEWMGRVIPVLGITNYAPKFQDKVTITADKVTSTAFLELTGLKSDDTAVYYCARVSDDVLTGALDYWGQGTLVTVSS
VL: QSVLTQPPSVSGSPGQSVTISFTGTRSDVGSHNRVAWFQQSPGTAPKLMIYEVTNRPSGVPDRFSGSKSGNTASLTISGLQAEDEADYYCSSYTSTSTWVFGGGTKLTVL
notes: also called Antibody derived from TRN1026
EC50 [3]: 0.05 µg/mL
